Assay results published in article PMC4976313, “ZCF32, a fungus specific Zn(II)2 Cys6 transcription factor, is a repressor of the biofilm development in the human pathogen Candida albicans”.

T1: Zcf32 ZFN-MBP (Candida albicans, UniProt Q5ANG4 1-116)
T1 sequence: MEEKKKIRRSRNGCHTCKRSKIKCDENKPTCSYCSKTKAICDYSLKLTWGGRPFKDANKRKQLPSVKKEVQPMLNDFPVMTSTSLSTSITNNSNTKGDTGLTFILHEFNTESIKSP

B1: O1 (dsDNA)
DNA 1: TACCCGATATAGCCGATG
DNA 2: CATCGGCTATATCGGGTA
B2: O2 (dsDNA)
DNA 1: CCGATATAGCCGATGCAT
DNA 2: ATGCATCGGCTATATCGG

Molecular target: T1, Zcf32 ZFN-MBP
Assay: EMSA; EMSA: 1X HEPES buffer (20 mM HEPES pH 7.8, 150 mM KCl, 0.1% BSA, 10% glycerol), on ice 30 min, 6% native PAGE
Conditions: protein: recombinant; tags: MBP (pMAL-c2x); chain copies: 2; label: 32P 5' end; blunt

Row | Binder | binding result
1 | B1 | binds
2 | B2 | binds
